Test results as given in the domain aggregation screens of Martell et al. (2025).

Assay: soluble fraction after stress (log2 fold change); higher = more stays soluble; pooled small domains, quantitative proteomics
Conditions: stress: 50 degC
Outline: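 Quantitative proteomics served as the high-throughput read-out for pooled custom libraries of small protein domains. Each was stressed at 50°C. Aggregation propensity is expressed as the base-two log fold change in soluble protein after stress. A higher value means a larger share of the protein remains in solution.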

| Sequence | soluble fraction (log2) |
| --- | --- |
| HMEISPGDVFKQLPGIGDDLSRRVVESLGIQSLEELESAAHDGRLEQVEGFGERRVQMVRAVLTGMLS | -0.0423 |
| HMEITTEDIAAQVASWIVRLSEDLTSTDRAALQIEFEQWQQTDSRRAEIAHKMLSLIGQAEQLRKT | -0.207 |
| HMEKAISSLTLEEAKKRLEMVRSEKDASLQIYKETGSETARVTAENYGKEENSLLLHISEMSNIV | -0.469 |
| HMEKFTGELSQEEKNVLDALSHEEMHVDIIIKLTKLETSAVSSTLSLLEIKGLIKNIGGQNYIK | 0.486 |
| HMEKIIFEISEEGKRLDLYIAERTELTRTRIQQLIKDGNINVNNKKSKPSYKVEKNDFIEMIIPDE | -0.56 |
| HMEKINLIIEEDNNLRLDKVIAMQLQELSRTQIQDMINQGLVLVNQKKEKASYKTKLNDEIEITILD | -1.37 |
| HMEKKDTYTVKNGDSLWGIARTELGDGGRFREIYTLNADTIEAEAKKRGRSSSSEGHWIYPGSVLRLP | 0.0469 |
| HMEKKGTVVIATVKGDIHDIGKNIVKVLLENYGFDVIDLGKDVPPEAVVEAVQQSGARLVGLSALM | -0.594 |
| HMEKKSKLVLAVLQGSDSDNTIRNLNERGFMVTVLSSTGGFLKKKSTTVMIGVEEDRLEEALDVLQKYAG | -0.295 |
| HMEKKTILIPPVITVRALAEISQIPVNRLLQELIKNGVFTSINEKIDFDTAVIIGADLNLDIQLL | -0.95 |
| HMEKLPRYILPGVPKVKSINISSALDGLVQDYSREFNISQKDIFQIALVEFFKKYGYHNAVKAVL | -0.314 |
| HMEKLSMLKIKELFRLAIEMNLSHRQIAQSLNVSHTVVNRYLKRFKKSNLSYETLLKLGDKEIISALYEH | -2.29 |
| HMEKPAQDVLASHREWMGEMIKAEHMTAKQVWRLLRERADIGVSYPTVKRYLRAHFQFGGPS | -1.28 |
| HMEKRLDYTFGLNKEQLLYLTKSIKDGDFYNVSFIDGTEKKLNRVGSTKEVHKYVNFLMTNDGIVKK | 0.0518 |
| HMEKSLKELAQGVGQKVLTSGRPYHFDPMSAMERRVVHMTLMEMDGLRTESEGEGRFRHVVVFPA | -0.184 |
| HMEKTEQMQVILDYIARYGEINNEKVQEILGVKRTRAYTILKQMVENGFVTTNGRGEEKKYYSIR | -0.336 |
| HMEKTIQIYDNIIIKDFAEKMEVSPSQVITKLIGLGVMANLNQPIDINSAVIVGKEFGFNVESM | -0.674 |
| HMEKVLPFEFERKFKTNHTAWDFFSNQAPPSYRKTVIHWILSAKQEITRISRLEKLIAASEQQKRI | -0.319 |
| HMEKYIVNQEEQGKRLDIYVVNKSSELTRTAVQRLIEQEHILVNGRKQKASYKVLEGDIITIERV | 0.573 |
| HMEKYTDDLEIAAEIARLETLMEGNGRVLIRPSGTEPLVRVMIEGNDIEQITKLAEDLAALLNKRF | -0.747 |
| HMELDFNSVYRQLNHEQKQAYQSIKSVLEQKISGSELDKKLKQAQQAFVAKFKENPNFEVPK | 0.31 |
| HMELDIGKKAIVIEKIDPEAGTGRVRIEGVDWGAKTADSSVIEKGETVVVKAKGAAFVTVAK | 0.18 |
| HMELEAFPNPTDMFLSFTTKEKTPLAIYDINGKQVLYVEQITSSSKINVSKLSEGVYFAKTNQGTVKWVK | -1.67 |
| HMELEQLKSQLTGFLKANREQIFTAQNLADGLRMTDSQGYKQVVNALNASVRDGDVIDIKNGYQYNKN | 0.0729 |
| HMELEWENYSLAGEIKTTVMLYQNRRNGLPEEAKQKADALMKQLKQAVIENDAQKVEKIDDALTALLFE | -0.15 |
| HMELGYTPNNLRSVRAKYGLTQKQVAEITGLKTWHPVNRWEAPVEAAYHADMPHTKWLKLLDELSSR | -0.993 |

| Sequence | soluble fraction (log2) |
| --- | --- |
| HMELKYIDYDEALVVYAKTVTASGGGLSGVKDEGGIRKVLDFVQNDLYYPTFVDKLTYLVFGL | 0.103 |
| HMELLPAERRQQLVDWFKSNQAGTSQDLARMFGISVSTIRRDLDLLASEGLVKRTHGGAVSIR | 0.0027 |
| HMELLPFEFARANRVLLRVNESDLVVSPDANHSAVTEILRLNNNIETIKSVDAEAFDKILSSIYSG | -0.765 |
| HMELLSVPSRLGTFFLGGEAGHIIRLYLPGDPTPRIAEHETPVLSEARRQLLEYLAGRRTAFSFPL | -0.139 |
| HMELNEIEFENLKESIIIHLEKESLSPHELVKHIQTIHPDKVTAVIQWMLENGFIKTDAGGQLTLVSK | 0.135 |
| HMELNELTSRELMVAEQVARGASNREISEALSISERTVKAHLSAAFEKLGVRDRVQLALAMNNIPT | -0.0086 |
| HMELNKNDLKIIKNISHIYPYFTPVKILQLILSKKFKTIDYNKILKSTSILTTDRSHLYYILNN | 0.0788 |
| HMELPSDEHLDDISHLARIGHKKGLQEKIIQLEQQGLASAEFIQQLKTLTNNFQFEKIIQWVDSEL | -0.0426 |
| HMELRIREILESKDIKVSSLAETVGITRANMSNIVNGKSTPSLETLEKIANALGVDITELFA | 0.116 |
| HMELSAEGWVDGTGVRMRASASTDSEVVRVTEDGESLDITGVSGTWYRVTAGGVSGYIRSDYVSLEEP | -0.287 |
| HMELSAQEIGRRLRIARENADIRQDDAAQVIGMSRPTLVSIEKGVRRVRIQEIQMLARHYGVSVNALLR | -2.14 |
| HMELSVTDRTRQIRHILKEKGRVEFTSLFEELTKPYVIVTFLSVLEMSKNNELMITQDKTFGSITLEMKG | -0.569 |
| HMELVIGESLAVELLRPGKEDGQALGYLPDGSMVVVNNGRAFVGKRVTAEIIGVIRSAGGKMVFSNLLGE | -2.68 |
| HMEMDITIQMRTLVEELNRASDAYYNGRGELMTDYEWDAKFDQLKQLESQSGVVLPDSPTHRV | -0.162 |
| HMEMELNHVARRAGRLSGFLKGELRLSTGLMNRLKWSNAILVNGKPARTNAQVEPGDRITVILD | -0.976 |
| HMEMLQENIRNLRKAKGWSQEELAIKLNVVRQTVSKWEKGLSVPDSQMLIRIADELDTTVAILLG | -0.246 |
| HMEMLQRFIFLENVSSTQVESAIKELHPNLNLKRVKLSFPGADTVLLKGPKQDLELAEELIRHLDRSE | -0.0342 |
| HMEMPGGVMRTLSTIAYNQPVLQSKLVKVRGPRAYEDVHILRDMGLVSARSVGQTVELSTTPKFAEQF | -0.265 |
| HMENEIFVPKVFMDWYNKVDKSIKVFKAFNLIEKETDPRLKEWVEDNQDEFAKIWLGQLLPVV | -0.0598 |
| HMENFIPDDPKRIEIGMSVLHQRFGKGKVMQLEGNLPDMKATVNFEGEGQKQLLLKYARLKIV | -0.232 |
| HMENIDVGQDYKVTMNTIQNLMKTGLVTGTQYKELLREMGVHSGMGAITAQQHQIALDFLNKTMDSA | 0.285 |
| HMENIIKISASYEGLRVDQFLSNYLKISRSKVQKYISEEKIFLNNVPTKTNRKVKLDDIISYNLNF | -3.01 |
| HMENITTILRSIKNEIKKNSTFVGDDFVNQARSMNQGQIKEKSIYGHGTKKEIEELRDEGVDVLNIPWIT | -0.162 |
| HMENKIIKNAAHATLKVKKDAGIEITTELIREAVILFHRIYSPNDNPNINWERIINELESHYT | -2.77 |
| HMENLFPDYTMQDYRIVRSELSSKFKVQTVPVTTATATENKIVRQEPEAGSRITEGMTVILYYSIGPE | -0.0582 |
| HMENLRLSELTVERGHRLAGRTLADIASAPNSPKYLIVLIQRGQETVIPTGSTVILPGDVLILAQS | -0.605 |

| Sequence | soluble fraction (log2) |
| --- | --- |
| HMENMSFGTKLYTWLYGKLVGSDEIGNKYYTNINDPSDLNAKRWVIFNGEIEASKIPPHWHAWLHKSIDK | -0.646 |
| HMENMTLGQRIQALRKQHGLSQEGLGERLGVSRQAISRWEMDGAVPEVDKLIAMARLFGVSLNQLLGVE | -0.193 |
| HMENNIPANIKALIISYVNQNYPGAVIHSIERNSNGTYDVEIYYNNREYDLLFDAQGNFISGNVDDQ | 0.0611 |
| HMENNIRLSVPDTESGQRIDSYLAEQIPGLTRSAVQNLLAEQAVTIAGKAVKKNYKLLGGEDILVQLPEVR | 0.216 |
| HMENPPISVVIPPSFRGQRIDKALGSLIGDYSRSKIQQWLQSGLVQSAGEPLLPKYTVLGNEQILIAVPS | 0.00382 |
| HMENQGEDMRQQVKALVNADKTNITKLATATGYSRSTISMYLAGNYKGDVEAVERRLEEYMKTQG | -0.0136 |
| HMENSYSVEDLALKAAISVDTIRYYQGLGLISPPQKNGRRAIYGNDHISRLEEIKKLAFEGFSLRQISLL | -0.224 |
| HMENTIPSVIGRTLSDGVFLLESYGYVKGNVSEEFSEMPIGVIIRQFPGAGSAAEAGTRVDLVVSKGEEIV | -0.0523 |
| HMENVALYIRLKSMASVYDDVHGYNIEWIKSMIGLSIDIEKLRTVLEDVSWITKVEEDVYSFSKNAKPFE | -4.31 |
| HMENVQLRNFAIKATEAGIIKLSSDQRTFMWASNQKKLMTVPFDEHPYSAMAQFFKTDEGLAVFKSIEKKL | -1.12 |
| HMEPADALVAALVARGVSPSTARITVKQYPATRIQPQLEVFDYLVAQKDPKVSRNPPGFLLSAIRGEYA | -0.188 |
| HMEPAPELTPREQQVLARIALGMTDKAIAEELGVSHQTVRNHVARIYQKIKVHSRSQAVVWAREKGI | -0.192 |
| HMEPDEESVRLKEEILSRIDYWHTTMPYMGTRKLAAKLRTEGYAVGRKLVRTYMREMGIHAVYP | -0.132 |
| HMEPELSVDMKPLDGLLLAIKKELQAAQMYTRLARASADAEQKMVFEQLANMEKGHKARLEDIYT | -0.0279 |
| HMEPESTMIEISETLTNERLDRYLATKLPNVSRGGIQRLLREGNILVNGKKAKPTQHPVAGQKIEITWPNP | 0.0857 |
| HMEPEYIGELEKRIKKLKTHTYSSIDRLMKSISKKYKITTQVLHDDFKNKHNEIPDEWVKQF | -0.0578 |
| HMEPKIKQIVPNVVNYPVEDAKNVLVNSGLIVQIRGQGNIVYDQVPKGGAEVTRGTTVILDLNPPPGA | 0.42 |
| HMEPKQIEVPNLVGISSAAARQTLSALGLHAVVKDSIWSETERIDTVLEQNPAGGALIKPEGTVYLRVSR | 0.033 |
| HMEPLIRTLEEQIAEKIKNYRKGTRVYDAEHVDRWISQLPEEERMVVLTETNRLLEQNYVDQAKLME | -0.107 |
| HMEPMLEIFDAKIDLADVLAVESGLVRLRGGAEVTSPRVDVDAGARLELDSGARLNVERLSY | 0.0258 |
| HMEPMTDQQILEGFAEFKRQNPDLMNRPATQAIVNLTLPGGTPISFRSGAGAAALNQYLESIGMRAGP | 0.202 |
| HMEPPAPAPDIPYPSRVTVRREVDGWPHYYGTWTRTPPVLGYEGIWLVGVSLDGKVQFVPVDDVTIA | -0.627 |
| HMEPREEFTFADLRANGLNGTAAAAGRRAALGAALGIGYGNAKQFLRRLNHYGVTRSEWEAALADLDE | -0.419 |
| HMEPSERYKALQSLLPDYAKRLKKKGVTRHQLFLEYRLTHPDGYARSRFGTYFQAYLALSHP | -2.27 |
